Drawing on the Human Domainome abundance scans (Beltran et al. 2025), this text covers abundance fitness for 55 variants.

± gives the uncertainty stated by the source.

First the molecules themselves.
B1: Pyruvate dehydrogenase protein X component, mitochondrial, residues 181 to 227; numbered along this chain, O00330 (parent)
chain: RFRLSPAARNILEKHSLDASQGTATGPRGIFTKEDALKLVQLKQTGK

The data set covers variants of B1. The data set is described as follows: abundance fitness (aPCA) (normalised: wild type 0, dead -1); higher = more abundant; growth selection in yeast, the domain comes from the species named. The settings on record: Homo sapiens.
In the case of RFRLSPAARNILEKHSLDASQGTATGPRGIPTKEDALKLVQLKQTGK [F31P], the abundance fitness was -0.206 ± 0.076.

Consider RFRLSPAARNILEKHSLDASQGTATGPRGISTKEDALKLVQLKQTGK [F31S], for which the abundance fitness was -0.306 ± 0.068.

For the variant RFRLSPAARNILEKHSLDASQGTATGPRGIATKEDALKLVQLKQTGK [F31A], the abundance fitness was -0.451 ± 0.087.

Turning to RFRLSPAARNILEKHSLDASQGTATGPRGITTKEDALKLVQLKQTGK [F31T], the abundance fitness was -0.171 ± 0.093.

For the variant RFRLSPAARNILEKHSLDASQGTATGPRGILTKEDALKLVQLKQTGK [F31L], the abundance fitness was -0.412 ± 0.046.

For RFRLSPAARNILEKHSLDASQGTATGPRGIKTKEDALKLVQLKQTGK [F31K], the abundance fitness is -0.423 ± 0.12.

On to RFRLSPAARNILEKHSLDASQGTATGPRGINTKEDALKLVQLKQTGK [F31N], for which the abundance fitness was -0.084 ± 0.11.

Turning to RFRLSPAARNILEKHSLDASQGTATGPRGICTKEDALKLVQLKQTGK [F31C], the abundance fitness is -0.236 ± 0.067.

Turning to RFRLSPAARNILEKHSLDASQGTATGPRGIMTKEDALKLVQLKQTGK [F31M], the abundance fitness is -0.38 ± 0.082.

With RFRLSPAARNILEKHSLDASQGTATGPRGIHTKEDALKLVQLKQTGK [F31H], the abundance fitness was -0.222 ± 0.11.

As for RFRLSPAARNILEKHSLDASQGTATGPRGIWTKEDALKLVQLKQTGK [F31W], the abundance fitness was -0.675 ± 0.14.

On to RFRLSPAARNILEKHSLDASQGTATGPRGIVTKEDALKLVQLKQTGK [F31V], for which the abundance fitness was -0.349 ± 0.065.

For RFRLSPAARNILEKHSLDASQGTATGPRGIETKEDALKLVQLKQTGK [F31E], the abundance fitness was -0.087 ± 0.071.

On to RFRLSPAARNILEKHSLDASQGTATGPRGIRTKEDALKLVQLKQTGK [F31R], for which the abundance fitness was -0.455 ± 0.063.

For the variant RFRLSPAARNILEKHSLDASQGTATGPRGIQTKEDALKLVQLKQTGK [F31Q], the abundance fitness was -0.424 ± 0.12.

As to RFRLSPAARNILEKHSLDASQGTATGPRGIGTKEDALKLVQLKQTGK [F31G], the abundance fitness is -0.195 ± 0.072.

Consider RFRLSPAARNILEKHSLDASQGTATGPRGIYTKEDALKLVQLKQTGK [F31Y], for which the abundance fitness was -0.335 ± 0.071.

For the variant RFRLSPAARNILEKHSLDASQGTATGPRGVFTKEDALKLVQLKQTGK [I30V], the abundance fitness is -0.263 ± 0.078.

For RFRLSPAARNILEKHSLDASQGTATGPRGRFTKEDALKLVQLKQTGK [I30R], the abundance fitness was -0.413 ± 0.067.

Turning to RFRLSPAARNILEKHSLDASQGTATGPRGTFTKEDALKLVQLKQTGK [I30T], the abundance fitness is 0.068 ± 0.083.

In the case of RFRLSPAARNILEKHSLDASQGTATGPRGYFTKEDALKLVQLKQTGK [I30Y], the abundance fitness was -0.292 ± 0.12.

On to RFRLSPAARNILEKHSLDASQGTATGPRGWFTKEDALKLVQLKQTGK [I30W], for which the abundance fitness is -0.229 ± 0.1.

RFRLSPAARNILEKHSLDASQGTATGPRGSFTKEDALKLVQLKQTGK [I30S]: the abundance fitness was -0.145 ± 0.065.

RFRLSPAARNILEKHSLDASQGTATGPRGIFKKEDALKLVQLKQTGK [T32K]: the abundance fitness is -0.517 ± 0.15.

On to RFRLSPAARNILEKHSLDASQGTATGPRGIFHKEDALKLVQLKQTGK [T32H], for which the abundance fitness is -0.389 ± 0.045.

For RFRLSPAARNILEKHSLDASQGTATGPRGIFDKEDALKLVQLKQTGK [T32D], the abundance fitness was -0.612 ± 0.17.

Turning to RFRLSPAARNILEKHSLDASQGTATGPRGIFLKEDALKLVQLKQTGK [T32L], the abundance fitness is -0.553 ± 0.097.

Turning to RFRLSPAARNILEKHSLDASQGTATGPRGIFCKEDALKLVQLKQTGK [T32C], the abundance fitness is -0.519 ± 0.12.

Regarding RFRLSPAARNILEKHSLDASQGTATGPRGIFNKEDALKLVQLKQTGK [T32N], the abundance fitness was -0.733 ± 0.18.

Take RFRLSPAARNILEKHSLDASQGTATGPRGIFEKEDALKLVQLKQTGK [T32E]: the abundance fitness is -0.447 ± 0.057.

As to RFRLSPAARNILEKHSLDASQGTATGPRGIFIKEDALKLVQLKQTGK [T32I], the abundance fitness was -0.965 ± 0.21.

In the case of RFRLSPAARNILEKHSLDASQGTATGPRGIFQKEDALKLVQLKQTGK [T32Q], the abundance fitness is -0.376 ± 0.13.

With RFRLSPAARNILEKHSLDASQGTATGPRGIFYKEDALKLVQLKQTGK [T32Y], the abundance fitness was -1.12 ± 0.2.

Regarding RFRLSPAARNILEKHSLDASQGTATGPRGIFWKEDALKLVQLKQTGK [T32W], the abundance fitness is -0.716 ± 0.071.

On to RFRLSPAARNILEKHSLDASQGTATGPRGIFVKEDALKLVQLKQTGK [T32V], for which the abundance fitness is -0.637 ± 0.053.

Take RFRLSPAARNILEKHSLDASQGTATGPRGIFPKEDALKLVQLKQTGK [T32P]: the abundance fitness is -0.492 ± 0.13.

For the variant RFRLSPAARNILEKHSLDASQGTATGPRGIFMKEDALKLVQLKQTGK [T32M], the abundance fitness was -0.947 ± 0.12.

For the variant RFRLSPAARNILEKHSLDASQGTATGPRGIFRKEDALKLVQLKQTGK [T32R], the abundance fitness is -0.698 ± 0.094.

Take RFRLSPAARNILEKHSLDASQGTATGPRGIFGKEDALKLVQLKQTGK [T32G]: the abundance fitness was -0.482 ± 0.052.

Regarding RFRLSPAARNILEKHSLDASQGTATGPRGIFAKEDALKLVQLKQTGK [T32A], the abundance fitness was -0.462 ± 0.087.

RFRLSPAARNILEKHSLDASQGTATGPRGIFTHEDALKLVQLKQTGK [K33H]: the abundance fitness was -0.039 ± 0.15.

Consider RFRLSPAARNILEKHSLDASQGTATGPRGIFTTEDALKLVQLKQTGK [K33T], for which the abundance fitness is -0.04 ± 0.084.

With RFRLSPAARNILEKHSLDASQGTATGPRGIFTPEDALKLVQLKQTGK [K33P], the abundance fitness is -0.607 ± 0.15.

For RFRLSPAARNILEKHSLDASQGTATGPRGIFTGEDALKLVQLKQTGK [K33G], the abundance fitness was -0.331 ± 0.05.

In the case of RFRLSPAARNILEKHSLDASQGTATGPRGIFTAEDALKLVQLKQTGK [K33A], the abundance fitness was -0.113 ± 0.057.

With RFRLSPAARNILEKHSLDASQGTATGPRGIFTFEDALKLVQLKQTGK [K33F], the abundance fitness was -0.623 ± 0.073.

For the variant RFRLSPAARNILEKHSLDASQGTATGPRGIFTMEDALKLVQLKQTGK [K33M], the abundance fitness was -0.325 ± 0.067.

For the variant RFRLSPAARNILEKHSLDASQGTATGPRGIFTCEDALKLVQLKQTGK [K33C], the abundance fitness is -0.417 ± 0.059.

Take RFRLSPAARNILEKHSLDASQGTATGPRGIFTEEDALKLVQLKQTGK [K33E]: the abundance fitness was 0.079 ± 0.044.

Regarding RFRLSPAARNILEKHSLDASQGTATGPRGIFTSEDALKLVQLKQTGK [K33S], the abundance fitness is -0.305 ± 0.084.

Take RFRLSPAARNILEKHSLDASQGTATGPRGIFTDEDALKLVQLKQTGK [K33D]: the abundance fitness is -0.279 ± 0.12.

Regarding RFRLSPAARNILEKHSLDASQGTATGPRGIFTLEDALKLVQLKQTGK [K33L], the abundance fitness is -0.379 ± 0.062.

In the case of RFRLSPAARNILEKHSLDASQGTATGPRGIFTIEDALKLVQLKQTGK [K33I], the abundance fitness turned out to be 0.047 ± 0.16.

Consider RFRLSPAARNILEKHSLDASQGTATGPRGIFTQEDALKLVQLKQTGK [K33Q], for which the abundance fitness stood at 0.036 ± 0.098.

Take RFRLSPAARNILEKHSLDASQGTATGPRGIFTNEDALKLVQLKQTGK [K33N]: the abundance fitness is -0.462 ± 0.18.
